Test results reported in patent publication US20160039936A1, “FIBROBLAST GROWTH FACTOR RECEPTOR INHIBITION FOR THE TREATMENT OF DISEASE” (UNIVERSITY OF MIAMI, priority 2011, published 2016).

Columns and labels:
FGFR = conditions: Mohammadi et al. 1998; Grand et al. 2004; cited from earlier work
isolated NRVM = assay: Signaling immunoblots in NRVM (p-ERK, Egr-1, p-NFAT, p-Akt); assay type: cell-based, rat; conditions: for Egr-1 levels / phosphorylated ERK: 30 and 60 minutes
Procedure: NRVM were scraped from a 6 cm-plate using 400 μl CHAPS extraction buffer [(20 mM Tris-HCl pH7.5, 500 mM NaCl, 0.5% CHAPS, protease inhibitor cocktail (Roche), protein phosphatase inhibitors (Sigma-Aldrich)] and incubated on ice for 15 minutes. The cell lysate was centrifuged at 14,000 rpm and 4° C. for 15 minutes and the supernatant boiled in sample buffer and analyzed by SDS-PAGE and immunoblotting as described before (Faul et al., Cell Biol., 169(3):415-424, 2005; Faul et al., Mol. Cell Biol., 27(23):8215-8227, 2007). For protein extraction from mouse hearts, tissue was isolated, minced and homogenized in CHAPS extraction buffer at 1:10 (w:v) and protein lysates were prepared as described above. Antibodies to sarcomeric α-actinin (EA-53; Sigma-Aldrich; 1:1000), total (Cell Signaling; 1:1000) and phospho-ERK (Cell Signaling; 1:1000), total and phospho-NFAT-c1 (Santa Cruz Biotechnology; 1:200), total and phospho-Akt (Cell Signaling; 1:1000 and 1:2000), and GAPDH (Abcam; 1:10,000) were used as primary antibodies and horseradish peroxidase conjugated goat-anti-mouse and goat-anti-rabbit (Promega; 1:20,000) were secondary antibodies.

HEK293 cells = assay: FGF-FGFR-dependent signaling in HEK293 cells (Western blot, immunoprecipitation); assay type: cell-based; conditions: for phosphorylated PLCγ levels / phosphorylation of FRS2γ (FGF2: FRS2γ and ERK1/2): HEK293, untransfected, 30 minutes
Procedure: HEK293 cells were grown in 6-well plates or 10 cm-culture dishes and transiently transfected with FuGene 6 (Roche) according to the manufacturer's protocol. After 36 hours, cells were serum-starved for 12-16 hours followed by treatment with FGF23 or FGF2 at 25 ng/ml for 15 or 30 minutes.
HEK293 cells, NRVM or NMVM were treated with growth factors for 30 minutes to analyze activation of signal transduction mediators, or for 48 hours to analyze expression levels of hypertrophic marker proteins. Cells were scraped from 6-well plates using 500 μl CHAPS extraction buffer (20 mM Tris-HCl pH7.5, 500 mM NaCl, 0.5% CHAPS, protease inhibitor cocktail (Roche), protein phosphatase inhibitors [Sigma-Aldrich]) and incubated on ice for 30 minutes. The cell lysate was centrifuged at 14,000 rpm and 4° C. for 30 minutes, and the supernatant boiled in sample buffer and analyzed by SDS-PAGE and immunoblotting. For protein extraction from mouse hearts, tissue was isolated, minced and homogenized in RIPA extraction buffer (50 mM Tris-HCl pH 7.5, 200 mM NaCl, 1% Triton X-100, 0.25% DOC, 1 mM EDTA, 1 mM EGTA, protease and phosphatase inhibitors) at 1:10 (w:v), and protein lysates were prepared as described above.
Antibodies to β-MHC (NOQ7.5.4D; Sigma-Aldrich; 1:1,000), RCAN1 (rabbit polyclonal, provided by Timothy McKinsey, University of Colorado, Denver, Colo. (Harrison et al., 2004); 1:1,000), FGFR4 (C-16; Santa Cruz; 1:1,000), total and phospho-ERK1/2 (Cell Signaling; 1:1,000), total and phospho-FRS2α (Santa Cruz 1:1,000; Cell Signaling; 1:1,000), total and phospho-PLCγ (Cell Signaling; 1:1,000), FLAG (M5, Sigma-Aldrich; 1:10,000), V5 (Sigma-Aldrich; 1:10,000) and GAPDH (Abcam; 1:10,000) were used as primary antibodies in 5% milk in TBST (RCAN1, FGFR4, FLAG, V5), 5% BSA in TBST (phospho-FRS2α) or 1.5% FBS in TBS (β-MHC, total and phospho-ERK1/2, total FRS2α, total and phospho-PLCγ, GAPDH) for 1-2 hours. Horseradish peroxidase-conjugated goat-anti-mouse and goat-anti-rabbit (Promega; 1:10,000) were secondary antibodies.
HEK293 cells in 10 cm-dishes were treated with growth factors for 30 minutes, cells were scraped using 1 ml IP buffer (50 mM Tris-HCl pH7.5, 150 mM NaCl, 5 mM MgCl2, 2 mM EGTA, 1% Triton X-100, 5% Glycerol, protease and phosphatase inhibitors), and protein lysates were prepared as described above. V5-tagged proteins were immunoprecipitated using 25 μl of anti-V5 agarose beads (Sigma-Aldrich). After 5 washes in IP buffer, proteins were eluted in 100 μl of sample buffer and analyzed by SDS-PAGE and immunoblotting. For endogenous immunoprecipitation studies from NRVM, cells in 10cm-dishes were treated with growth factors for 30 minutes. Some cells were pre-treated with FGFR4 blocking antibody at 10 μg/ml for 1 hour (human monoclonal, U3-11; U3Pharma). Cells were scraped in 1 ml RIPA buffer, and protein lysates were incubated with 2 μg of anti-FGFR4 (C-16; Santa Cruz) or anti-GFP (Clonetech) as negative control at 4° C. under rotation overnight. We added 50 μl of a 1:1 mix of Protein A on sepharose beads and Protein G on agarose beads that were previously equilibrated in RIPA buffer, followed by incubation at 4° C. under rotation for 2 hours, protein elution in sample buffer, and SDS-PAGE and Western blot analyses.

[1] = In vivo biological activity of FGF23 (serum phosphate); parameters: species or system rat; conditions: Sprague-Dawley rats, single i.v. 40 μg/kg, over 4 hours
Excerpt: We used recombinant mouse FGF23 (6His-tagged Tyr25-Val251 (Arg179Gln)), FGF2 (Ala11-Ser154), and FGF4 (Ala30-Leu202) proteins (R&D Systems). We chose the mutant form of FGF23 because it is resistant to furin protease-mediated degradation, which prolongs the protein's half-life.
We used recombinant mouse FGF23 (6His-tagged Tyr25-Val251 [Arg179Gln]; 26.1 kDa), and FGF2 (Ala11-Ser154; 16.2 kDa) (R&D Systems) as before (Faul et al., 2011).

Row | Molecule | phosphorylation of FGFR3 and FGFR4 (FGFR) | Egr-1 levels (isolated NRVM) | phosphorylated ERK (isolated NRVM) | phosphorylated Akt (isolated NRVM; after 60 minutes) | phosphorylated NFAT (isolated NRVM; after 60 minutes) | FGF2-mediated FRS2α/Ras/MAPK signaling (HEK293 cells; HEK293, presence or absence of α-klotho or β-klotho) | phosphorylated PLCγ levels (HEK293 cells) | phosphorylation of FRS2γ (FGF2: FRS2γ and ERK1/2) (HEK293 cells) | phospho-PLCγ levels (HEK293 cells; HEK293 overexpressing FGFR4Arg385, 30 minutes) | ERK1/2 phosphorylation (HEK293 cells; HEK293 overexpressing V5-tagged FGFR4) | phosphorylation of PLCγ (HEK293 cells; HEK293 overexpressing ectopic β-klotho) | FGFR isoform binding to PLCγ (co-precipitation) (HEK293 cells; HEK293 transfected with V5-tagged FGFR1-4, 30 minutes) | levels of phospho-ERK and Egr-1 (HEK293 cells; HEK293 transiently expressing FLAG-tagged klotho) | activation of PLCγ (HEK293 cells; HEK293 with ectopic α-klotho) | phosphorylation of FRS2α and ERK1/2 (HEK293 cells; HEK293 with ectopic α-klotho) | serum phosphate levels [1]
1 | CCN(CC)CCCCNc1ncc2cc(-c3cc(OC)cc(OC)c3)c(NC(=O)NC(C)(C)C)nc2n1 [PD173074] | inhibits | – | – | – | – | – | – | – | – | – | – | – | – | – | – | –
2 | FGF2: recombinant mouse FGF2 (Ala11-Ser154) (R&D Systems) (protein) ALPEDGGAAFPPGHFKDPKRLYCKNGGFFLRIHPDGRVDGVREKSDPHVKLQLQAEERGVVSIKGVCANRYLAMKEDGRLLASKCVTEECFFFERLESNNYNTYRSRKYSSWYVALKRTGQYKLGSKTGPGQKAILFLPMSAKS | – | increase | robust increase | modest increase | had no effect | unaffected | had no effect | increased | – | – | – | – | – | – | – | –
3 | FGF23: recombinant mouse FGF23, 6His-tagged Tyr25-Val251 (Arg179Gln) (R&D Systems) (protein, left off: small tags and cut ends) YPDTSPLLGSNWGSLTHLYTATARTSYHLQIHRDGHVDGTPHQTIYSALMITSEDAGSVVITGAMTRRFLCMDLHGNIFGSLHFSPENCKFRQWTLENGYDVYLSQKHHYLVSLGRAKRIFQPGTNPPPFSQFLARRNEVPLLHFYTVRPRRHTQSAEDPPERDPLNVLKPRPRATPVPVSCSRELPSAEEGGPAASDPLGVLRRGRGDARGGAGGADRCRPFPRFV | – | only a modest increase | only a modest increase | – | modest decrease | – | increased | did not induce | further increased | does not increase | induced phosphorylation | only FGFR4 bound PLCγ | increased levels | did not activate | increased | significantly decreased
